PMC9609998, “Bioimaging Nucleic-Acid Aptamers with Different Specificities in Human Glioblastoma Tissues Highlights Tumoral Heterogeneity”

Biological target: integrin α5β1 (in human FFPE glioblastoma sections) (human, UniProt P08648;P05556 42-1049;21-798)
Assay: aptahistofluorescence; FFPE GBM, 1 or 2 µM aptamer; frozen sections too low to detect; Flow cytometry: 300,000 cells detached with 0.2 M EDTA, 30 min with Cy5-aptamer; tissue: selection buffer, 2% BSA +/- 100 µg/mL yeast tRNA block, 1 h on ice; aptamers denatured at 95 °C 3 min then ice 5 min; buffer composition, salt and pH not given in material
Settings: protein: native; copies: 1;1; label: 3'-Cy5

Sequence of integrin α5β1 (in human FFPE glioblastoma sections) (P08648 42-1049, chain 1 of 2): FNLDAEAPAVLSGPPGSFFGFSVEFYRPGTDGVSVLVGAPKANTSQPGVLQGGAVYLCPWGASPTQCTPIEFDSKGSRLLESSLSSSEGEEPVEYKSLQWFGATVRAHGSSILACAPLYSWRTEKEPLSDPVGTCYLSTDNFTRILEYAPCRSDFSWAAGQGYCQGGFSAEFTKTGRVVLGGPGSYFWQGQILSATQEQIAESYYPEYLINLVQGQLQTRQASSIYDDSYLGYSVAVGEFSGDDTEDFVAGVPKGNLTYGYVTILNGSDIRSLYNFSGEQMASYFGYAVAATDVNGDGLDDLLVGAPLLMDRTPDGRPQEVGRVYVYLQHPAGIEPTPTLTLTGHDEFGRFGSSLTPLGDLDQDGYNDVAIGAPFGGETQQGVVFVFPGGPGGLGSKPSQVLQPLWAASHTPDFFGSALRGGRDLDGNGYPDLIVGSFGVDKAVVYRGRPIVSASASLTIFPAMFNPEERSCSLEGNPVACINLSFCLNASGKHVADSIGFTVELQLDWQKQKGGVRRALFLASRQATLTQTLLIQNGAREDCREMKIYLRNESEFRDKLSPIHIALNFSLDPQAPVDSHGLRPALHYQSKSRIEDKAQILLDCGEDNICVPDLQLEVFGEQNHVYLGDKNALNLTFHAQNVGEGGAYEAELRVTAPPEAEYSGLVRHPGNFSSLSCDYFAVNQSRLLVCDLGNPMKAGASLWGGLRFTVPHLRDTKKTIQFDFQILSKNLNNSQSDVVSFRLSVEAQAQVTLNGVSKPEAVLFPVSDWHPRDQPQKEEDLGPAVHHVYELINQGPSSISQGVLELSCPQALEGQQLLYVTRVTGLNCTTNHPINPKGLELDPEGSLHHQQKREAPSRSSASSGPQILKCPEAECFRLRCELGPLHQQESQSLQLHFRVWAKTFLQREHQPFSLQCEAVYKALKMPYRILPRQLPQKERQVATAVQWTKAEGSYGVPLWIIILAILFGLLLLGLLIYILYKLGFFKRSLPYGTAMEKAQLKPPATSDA
Sequence of integrin α5β1 (in human FFPE glioblastoma sections) (P05556 21-798, chain 2 of 2): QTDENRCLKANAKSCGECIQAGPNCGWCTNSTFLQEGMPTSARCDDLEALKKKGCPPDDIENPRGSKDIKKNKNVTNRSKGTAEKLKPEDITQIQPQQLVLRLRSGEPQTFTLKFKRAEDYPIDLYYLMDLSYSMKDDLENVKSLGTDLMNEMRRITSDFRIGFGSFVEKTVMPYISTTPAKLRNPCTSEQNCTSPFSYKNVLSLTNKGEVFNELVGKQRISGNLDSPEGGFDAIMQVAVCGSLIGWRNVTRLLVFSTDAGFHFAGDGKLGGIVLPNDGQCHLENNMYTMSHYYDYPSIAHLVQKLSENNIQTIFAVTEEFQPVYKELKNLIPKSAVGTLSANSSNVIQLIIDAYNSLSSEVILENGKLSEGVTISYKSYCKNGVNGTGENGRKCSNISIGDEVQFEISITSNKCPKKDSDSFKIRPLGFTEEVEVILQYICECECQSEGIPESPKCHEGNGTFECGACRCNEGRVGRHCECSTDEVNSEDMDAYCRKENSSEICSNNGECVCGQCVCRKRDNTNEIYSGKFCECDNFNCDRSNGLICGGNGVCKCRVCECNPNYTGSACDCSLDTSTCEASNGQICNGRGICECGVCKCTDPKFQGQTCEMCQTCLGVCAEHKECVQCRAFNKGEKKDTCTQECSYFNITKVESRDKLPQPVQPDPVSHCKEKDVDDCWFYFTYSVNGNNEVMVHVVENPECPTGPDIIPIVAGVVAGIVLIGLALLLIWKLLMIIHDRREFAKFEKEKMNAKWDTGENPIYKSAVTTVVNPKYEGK

B1: H02-Cy5 (XNA)
RNA: GGUUACCAGCCUUCACUGCGGACGGACAGAGAGUGCAACCUGCCGUGCCGCACCACGGUCGGUCACAC
modifications: 2'-fluoro pyrimidines (2'F-RNA)
B1: binds.
